B1: El-A10 (E1 derived anti-c-Met antibody) (antibody, V domains shown)
VH: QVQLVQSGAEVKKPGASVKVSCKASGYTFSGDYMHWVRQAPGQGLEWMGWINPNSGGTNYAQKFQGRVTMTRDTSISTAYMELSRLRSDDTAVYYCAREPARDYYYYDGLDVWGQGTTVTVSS
VL: QSVVTQPPSVSGAPGQRVTISCLGSASNIGAGHDVHWYQQLPGTAPKLLIYGNSNRPSGVPDRFSGSKSGTSASLAITGLQAEDEADYYCQSYSSSLSAYVFGTGTKVTVL
notes: The two labels are matched by their suffix only; Detected with anti-human IgG (gamma-chain specific); also called E1-A10; GCE-A10
B2: El-A14 (E1 derived anti-c-Met antibody) (antibody, V domains shown)
VH: QVQLVQSGAEVKKPGASVKVSCKASGYTFSGDYIHWVRQAPGQGLEWMGWINPNSGGTNYAQKFQGRVTMTRDTSISTAYMELSRLRSDDTAVYYCAREPARDYYYYDGLDVWGQGTTVTVSS
VL: B1 VL with L23I, A26S
notes: Label 'El-A14' matched to 'GCE-A14' by suffix only; Detected with anti-human IgG; also called E1-A14; GCE-A14
B3: El-BR1 (E1 derived anti-c-Met antibody) (antibody, V domains shown)
VH: B2 VH with Y27S, I34L
VL: B1 VL with H33Y, Y100V, V101L
notes: Label 'El-BR1' matched to 'GCE-BR1' by suffix only; Detected with anti-human IgG; also called E1-BR1; GCE-BR1
B4: El-A18 (E1 derived anti-c-Met antibody) (antibody, V domains shown)
VH: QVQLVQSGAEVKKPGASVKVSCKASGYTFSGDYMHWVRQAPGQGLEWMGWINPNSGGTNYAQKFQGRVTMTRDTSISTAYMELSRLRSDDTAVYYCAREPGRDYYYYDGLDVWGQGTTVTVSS
VL: B1 VL with L23I
notes: Label 'El-A18' matched to 'GCE-A18' by suffix only; Detected with anti-human IgG; also called E1-A18; GCE-A18
B5: El-B13 (E1 derived anti-c-Met antibody) (antibody, V domains shown)
VH: B2 VH with Y27S
VL: B1 VL with Y100V, V101L
notes: Label 'El-B13' matched to 'GCE-B13' by suffix only; Detected with anti-human IgG; also called E1-B13; GCE-B13
B6: El-A11 (E1 derived anti-c-Met antibody) (antibody, V domains shown)
VH: B2 VH with Y27F
VL: B1 VL with A26S, P57I, V101L
notes: Label 'El-A11' matched to 'GCE-A11' by suffix only; Detected with anti-human IgG; also called E1-A11; GCE-A11
B7: El-A13 (E1 derived anti-c-Met antibody) (antibody, V domains shown)
VH: B2 VH with I34L
VL: B1 VL
notes: Label 'El-A13' matched to 'GCE-A13' by suffix only; Detected with anti-human IgG; also called E1-A13; GCE-A13
B8: El-B19 (E1 derived anti-c-Met antibody) (antibody, V domains shown)
VH: B2 VH with Y27F, A101G
VL: B1 VL with Y100V, V101L
notes: Label 'El-B19' matched to 'GCE-B19' by suffix only; Detected with anti-human IgG; also called E1-B19; GCE-B19
B9: El-B11 (E1 derived anti-c-Met antibody) (antibody, V domains shown)
VH: B2 VH
VL: B1 VL with L23I, A26S, H33Y, P57I, Y100V, V101L
notes: Label 'El-B11' matched to 'GCE-B11' by suffix only; Detected with anti-human IgG; also called E1-B11; GCE-B11
B10: A1-24 anti-c-Met antibody (antibody, V domains shown)
VH: QVQLQESGPGLVKPSQTLSLTCTVSGGSISSGGYYWSWIRQHPGKGLEWIGESTHSGSTNYNPSLESRVTISVDTSKNQFSLKLSSVTAADTAVYYCARGRDSYDFDAWGQGTLVTVSS
VL: LPVLTQPASVSGSPGQSITISCTGTSFDVGGYNYVSWYQQHPGKAPKLMIYDVSDRPSGVSTRFSGSKSGNTASLTISGLQAEDEADYYCSSFRSSAALVVFGGGTKLTVL
notes: Detected with anti-human IgG (gamma-chain specific)
B11: A1-4 anti-c-Met antibody (antibody, V domains shown)
VH: B10 VH with T54S, E66K, S103G, D105Y
VL: B10 VL with F27S, N33P, D52V, F93Y, A97S, K107Q
notes: as for B10
B12: A1-9 anti-c-Met antibody (antibody, V domains shown)
VH: B10 VH with S53I, T54S, E66K, S103G, D105Y, F106L, A108Q
VL: B10 VL with F27S, D52N, A97S
notes: as for B10
B13: A1-32 anti-c-Met antibody (antibody, V domains shown)
VH: B10 VH with E66D, S103G, D105Y, F106L, A108Q
VL: B10 VL with N33P
notes: as for B10
B14: A1-2 anti-c-Met antibody (antibody, V domains shown)
VH: B10 VH with E66K, S103G
VL: B10 VL with A97S
notes: as for B10
B15: A1-6 anti-c-Met antibody (antibody, V domains shown)
VH: B10 VH with S53I, E66K, S103G, F106I
VL: B10 VL with F27W, N33P, F93Y, S96V, A97S
notes: as for B10

Residue numbers refer to the chain shown, from its start.

In the first assay the target is T1, c-Met (HGF receptor) expressed on cells (human, UniProt P08581 25-1390).
T1 construct: whole, on cells; Endogenous c-Met on tumour cell lines and on human umbilical vein endothelial cells
T1 sequence (P08581 25-1390): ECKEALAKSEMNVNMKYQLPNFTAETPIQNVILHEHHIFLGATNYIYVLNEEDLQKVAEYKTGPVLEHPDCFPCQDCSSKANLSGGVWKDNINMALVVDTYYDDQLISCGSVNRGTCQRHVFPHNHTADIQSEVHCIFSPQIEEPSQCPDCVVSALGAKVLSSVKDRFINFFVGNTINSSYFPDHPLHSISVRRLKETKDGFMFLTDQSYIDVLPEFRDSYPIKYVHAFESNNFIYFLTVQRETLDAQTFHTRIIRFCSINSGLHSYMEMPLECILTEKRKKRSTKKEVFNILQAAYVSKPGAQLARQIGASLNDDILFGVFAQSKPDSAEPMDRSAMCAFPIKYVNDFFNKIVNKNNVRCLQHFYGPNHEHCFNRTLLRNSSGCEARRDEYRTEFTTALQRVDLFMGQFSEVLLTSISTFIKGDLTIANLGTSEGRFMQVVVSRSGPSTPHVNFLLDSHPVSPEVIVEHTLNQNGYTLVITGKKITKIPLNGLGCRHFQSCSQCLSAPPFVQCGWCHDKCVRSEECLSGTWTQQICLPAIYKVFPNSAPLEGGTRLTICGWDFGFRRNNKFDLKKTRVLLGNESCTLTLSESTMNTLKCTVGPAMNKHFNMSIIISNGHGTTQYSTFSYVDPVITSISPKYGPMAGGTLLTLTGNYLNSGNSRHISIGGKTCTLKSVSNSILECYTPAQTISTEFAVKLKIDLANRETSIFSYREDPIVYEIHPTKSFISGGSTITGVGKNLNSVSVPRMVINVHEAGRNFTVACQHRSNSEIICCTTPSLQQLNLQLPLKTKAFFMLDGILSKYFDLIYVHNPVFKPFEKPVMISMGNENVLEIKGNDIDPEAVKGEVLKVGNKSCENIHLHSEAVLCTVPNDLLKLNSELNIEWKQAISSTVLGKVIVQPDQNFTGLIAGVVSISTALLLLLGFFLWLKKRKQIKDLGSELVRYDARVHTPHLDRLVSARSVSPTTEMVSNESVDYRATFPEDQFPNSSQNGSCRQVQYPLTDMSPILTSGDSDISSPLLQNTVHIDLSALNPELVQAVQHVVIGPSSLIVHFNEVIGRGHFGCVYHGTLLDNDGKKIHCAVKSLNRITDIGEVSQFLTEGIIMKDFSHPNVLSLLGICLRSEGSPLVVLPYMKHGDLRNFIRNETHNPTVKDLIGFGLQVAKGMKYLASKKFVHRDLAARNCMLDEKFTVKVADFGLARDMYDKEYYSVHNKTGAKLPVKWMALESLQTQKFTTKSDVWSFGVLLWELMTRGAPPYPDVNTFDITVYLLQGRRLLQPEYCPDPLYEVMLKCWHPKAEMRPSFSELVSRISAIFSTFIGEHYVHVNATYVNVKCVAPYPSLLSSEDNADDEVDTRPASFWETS
The assay can be described thus: flow cytometry, antibody titration on HUVEC cells, PE anti-human IgG. On the procedure:
(§1) This example illustrates in vitro data for anti-c-Met antibody cellular binding EC₅₀ measurements. […] In this example, DU-145 prostate cancer cells, SK-O-V3 ovarian cancer cells, or human umbilical vein endothelial cells (HUVEC) were aliquoted into the wells of a 96-well, v-bottom plate in FACS Buffer (PBS+2% FBS). A 16-point, 2 fold serial dilution curve of antibodies made in FACS Buffer was used to stain the cells. After 1 hr incubation, cells were washed 2× with FACS Buffer and resuspended in PE-conjugated, goat anti-human IgG (γ-chain specific) secondary antibody (Southern Biotech Cat #2040-09). Cells were further incubated for 0.5 hr and then washed 1× with FACS Buffer. Cells were resuspended in FACS Buffer and the median fluorescence intensity in the FL2-A channel was determined using the Intellicyt® HTFC flow cytometer. Data was collected and analyzed on the Intellicyt® HTFC flow cytometer using the ForeCyt® software. ND=Not Determined.
Background: A flow cytometer gives signals particle by particle.
For orientation: EC50 means the concentration needed to bring the measured effect to its halfway point. The low end stands for a more potent agent, the high end for a less potent agent. B1 came in with a concentration giving a half-maximal response (EC50) of 148 pM.
On the same count and under the same terms, the same measure for B2: 132 pM; for B3: 376 pM.
For the molecule B4, a half-maximal response (EC50) required 606 pM.
The molecule B5 displayed an EC50 of 190 pM.

The target in a further assay is T1, c-Met (HGF receptor) expressed on cells. The assay is described as follows: flow cytometry, antibody titration on DU-145 prostate cancer cells, PE anti-human IgG. On the procedure: as §1
For B1, the midpoint of the response, the EC50, lay at 200 pM.
The same measure, in the same setting: the same measure for B6: 260 pM; for B2: 212 pM; for B7: 362 pM.
The same measure, in the same setting: the same measure for B3: 3360 pM.
The same measure, in the same setting: the same measure for B5: 251 pM; for B8: 3350 pM; for B9: 340 pM.

Another assay shares this target. The assay is described as follows: flow cytometry, antibody titration on SK-O-V3 ovarian cancer cells, PE anti-human IgG. As to the method:
as §1
Take B1: the EC50 was found to be 153 pM.
Same read-out and setting: the same measure for B6: 200 pM; for B2: 120 pM; for B7: 159 pM.
Still for that read-out and setting: the same measure for B3: 467 pM; for B4: 1150 pM; for B5: 191 pM.
On the same count and under the same terms, the same measure for B8: 852 pM.
B9 displayed an EC50 of 410 pM.

The target is the same in the next assay. The assay can be described thus: flow cytometry, antibody titration on DU-145 prostate cancer cells, PE anti-human IgG. The source holds these as a separate data set. As to the method:
as §1, with “cells or” for “cells,”, “cancer” for “cancer cells, or human umbilical vein endothelial”, “cells” for “cells (HUVEC)”, “Determined” for “Determined.”
Turning to B10, the half-maximal effective concentration (EC50) came out at 3 pM.
Same read-out and setting: the same measure for B11: 17 pM.
In turn, B12 had a concentration giving a half-maximal response (EC50) of 58 pM.
In turn, B13 showed an EC50 of 64 pM.

For the next assay the target is unchanged. The assay can be described thus: flow cytometry, antibody titration on SK-O-V3 ovarian cancer cells, PE anti-human IgG. This is another data set of the same source. As to the method:
as §1, with “cells or” for “cells,”, “cancer” for “cancer cells, or human umbilical vein endothelial”, “cells” for “cells (HUVEC)”, “Determined” for “Determined.”
Molecule B14 returned an EC50 of 223 pM.
On the same count and under the same terms, the same measure for B10: 135 pM; for B11: 54 pM; for B12: 76 pM.
Still for that read-out and setting: the same measure for B13: 109 pM.
Still for that read-out and setting: the same measure for B15: 53 pM.

(Values after patent US20190359719A1 (SORRENTO THERAPEUTICS, published 2019).)
